What was measured:
whole blood sample = assay: TEG clot strength (MA) of whole blood samples containing abciximab; format: cell-based, human; settings: patient sample 29494
Method: The TEG Hemostasis Analyzer provides quantitative and qualitative measurements of the physical properties of a clot (Samara et al., Thromb. Res. 115:89-94, 2005). In the present example, the maximum amplitude (MA) and the coagulation time (R) were measured for the thrombin generated clot sample. MA is an indicator of the viscoelasticity of clot formation or clot strength and is dependent on platelet aggregation and fibrin formation and polymerization. R is the period of time of latency until initial fibrin formation and has been correlated with the velocity of thrombin generation.
The clotting of a whole blood sample was perturbed using the antithrombotic agent abciximab (ReoPro®). Abciximab is the Fab fragment of a human-murine monoclonal antibody that binds to the Ith/IIIa receptor of human platelets and inhibits platelet aggregation. Abciximab serves to inhibit the retraction of a clot during the clotting process.
Samples containing abciximab were prepared according to the following procedure and referenced in the application and Figures by a number corresponding to the concentration of abciximab in units of μg/mL.
1. Blood was drawn from normal donors into six citrate tubes. Normal donors must not have taken aspirin or any anti-platelet drug in the past two weeks.
2. The six tubes of blood were pooled and mixed gently by inversion eight to ten times. Samples were used within two hours of collection.
3. A abciximab solution (10 mg/5 mL) was diluted at a ratio of 1:4 using saline as a diluent to form “solution 1.”
4. The blood was spiked with solution 1 and saline according to Table 5
5. […]
In a second experiment, five aliquots of patient sample 29494 were prepared with different concentrations (0, 2, 4, 8, and 0 μg/mL) of abciximab prior to initiation of the clotting process. The T2 relaxations times for the samples were measured in series, with each set of measurements lasting approximately 50 min. […] The corresponding TEG-determined MA values for these samples was 60.7, 61.4, 30.4, and 22.0, respectively.

human platelets = assay: T2 relaxation 3D plots of clotting whole blood containing abciximab; format: cell-based
Method: T2 relaxation rate data was collected from CK blood samples drawn from healthy patients. For each sample, a series of T2 decay curves were measured over a period of 50 minutes. The decay curves were each processed using an inverse Laplace transform (ILT CONTIN) to provide an array of curves showing T2 intensity as a function of T2 time. […] FIG. 20 illustrates the 3D data sets for patient samples 29328 and 29350 collected on a Bruker minispec. […] At a time between 5 minutes and 30 minutes, the single water population diverged into two significant water populations. These two water populations correspond to the two components of the clot, i.e., the retracted clot and the serum surrounding the retracted clot. […] For some samples these two peaks were not entirely resolved. […]
In a first experiment, four aliquots of patient sample 29488 were prepared with different concentrations of abciximab (0, 2, 4, and 8 μg/mL) prior to initiation of the clotting process. The T2 relaxation times for the four samples were measuring over the course of clot formation and the corresponding 3D plots were determined using the technique described in Example 13. […] This physical change is evidenced and quantified in the corresponding 3D plots (FIG. 21), showing fast exchange of water within the uniform sample at the highest concentration of abciximab.

fibrin = assay: Simulated fibrinolysis in healthy patient blood, T2Coagulation T2B versus TEG LY30; format: cell-based, human; settings: kaolin runs
Method: Five different healthy patient samples were used to test whether T2Coagulation was sensitive to fibrinolysis. Addition of tissue plasminogen activator (TPA) was used to simulate fibrinolysis by adding it at two levels to healthy patient blood. TPA cleaves fibrin as it forms. It was observed that fibrinolysis can be detected within 10 minutes on T2Coagulation, which is less than half the time required for detection on TEG. For all five patients there was a clear difference between healthy and fibrinolytic samples.
There are several potential features that can be used for this correlation. Three that were investigated were the difference between (i) the minimum and maximum T2B values (FIG. 13), (ii) the average of the T2B values over the final 25 minutes of the T2B curves, and (iii) the T2B values at 10 minutes. All had correlations with R^2 values between 0.72 and 0.79. The correlation plots show a higher sensitivity of T2Coagulation for fibrinolysis than TEG. This can be seen by the groupings for the different levels of fibrinolysis in FIG. 13. The healthy patient samples are circled with the solid line. […] The T2Coagulation T2B term can be detected in as little as 10 minutes, which is much faster than the TEG LY30 term can be detected, indicating the utility of the T2Coagulation signal for more rapid measurement of fibrinolysis.

whole blood fibrinolysis = assay: T2MR whole blood fibrinolysis with spiked TPA; format: cell-based, human; settings: TPA 100 U/mL, blood from a healthy donor
Method: The T2MR surface is also sensitive to whole blood fibrinolysis. To assess this, healthy donor samples were spiked with tissue plasminogen activator (TPA).
TPA was added at 100 U/mL to blood from a healthy donor. In the absence of TPA (see FIG. 27a) two stable peaks form at the expected clotting time. With 100 U/mL of TPA (see FIG. 27b) the clot forms at the expected time, but proves to be unstable after 20-30 minutes. Both the instability and the distance between the final T2 peaks indicate sensitivity to fibrinolysis induced by the presence of TPA.
The T2MR effect on fibrinolysis was expressed in AU values (arbitrary units; see FIG. 27c) obtained by calculating the difference between the maximum and minimum T2 value observed for the clot signal (or T2B) in the T2 time curve.
Fibrinolysis was monitored by T2 magnetic resonance (T2MR) in five patient blood samples with and without the addition of TPA (100 U/mL) (FIG. 27c). […] All other samples required addition of TPA to induce fibrinolysis, as confirmed by the reference method.

B1: abciximab (antibody, chains of the INN, looked up, V domains shown)
VH: EVQLQQSGTVLARPGASVKMSCEASGYTFTNYWMHWVKQRPGQGLEWIGAIYPGNSDTSYIQKFKGKAKLTAVTSTTSVYMELSSLTNEDSAVYYCTLYDGYYVFAYWGQGTLVTVSA
VL: EIVLTQSPVTLSVTPGDSVSLSCRASRDISNNLHWFQQTSHESPRLLIKYASQSMSGIPSRFSGSGSGTDFTLSINSVETEDFGMYFCQQTNSWPYTFGGGTKLEIK
modifications: Fab
TEG-determined MA value (whole blood sample; abciximab 2 μg/mL): 61.4
TEG-determined MA value (whole blood sample; abciximab 4 μg/mL): 30.4
TEG-determined MA value (whole blood sample; abciximab 8 μg/mL): 22.0
effect on clot associated T2 signal intensity (human platelets; 8 μg/mL Reopro, T2reader, versus native sample): reduces the signal intensity of the clot associated signal
phases (retracted clot and serum water populations) visible within the clot (human platelets; highest concentration of abciximab (8 μg/mL), patient sample 29488, Bruker minispec): no longer two phases visible within the clot

B2: Cathflo®: recombinant alteplase manufactured by Genentech (protein, UniProt P00750 36-562, looked up)
Tissue-type plasminogen …: SYQVICRDEKTQMIYQQHQSWLRPVLRSNRVEYCWCNSGRAQCHSVPVKSCSEPRCFNGGTCQQALYFSDFVCQCPEGFAGKCCEIDTRATCYEDQGISYRGTWSTAESGAECTNWNSSALAQKPYSGRRPDAIRLGLGNHNYCRNPDRDSKPWCYVFKAGKYSSEFCSTPACSEGNSDCYFGNGSAYRGTHSLTESGASCLPWNSMILIGKVYTAQNPSAQALGLGKHNYCRNPDGDAKPWCHVLKNRRLTWEYCDVPSCSTCGLRQYSQPQFRIKGGLFADIASHPWQAAIFAKHRRSPGERFLCGGILISSCWILSAAHCFQERFPPHHLTVILGRTYRVVPGEEEQKFEVEKYIVHKEFDDDTYDNDIALLQLKSDSSRCAQESSVVRTVCLPPADLQLPDWTECELSGYGKHEALSPFYSERLKEAHVRLYPSSRCTSQHLLNRTVTDNMLCAGDTRSGGPQANLHDACQGDSGGPLVCLNDGRMTLVGIISWGLGCGQKDVPGVYTKVTNYLDWIRDNMRP
modifications: alteplase
notes: recombinant alteplase manufactured by Genentech
degree of fibrinolysis of samples (fibrin; 60 ng/mL Cathflo in healthy patient blood): partially fibrinolytic
degree of fibrinolysis of samples (fibrin; 118 ng/mL Cathflo in healthy patient blood): fully fibrinolytic

B3: tissue plasminogen activator (protein, UniProt P00750 36-562, looked up)
Tissue-type plasminogen …: SYQVICRDEKTQMIYQQHQSWLRPVLRSNRVEYCWCNSGRAQCHSVPVKSCSEPRCFNGGTCQQALYFSDFVCQCPEGFAGKCCEIDTRATCYEDQGISYRGTWSTAESGAECTNWNSSALAQKPYSGRRPDAIRLGLGNHNYCRNPDRDSKPWCYVFKAGKYSSEFCSTPACSEGNSDCYFGNGSAYRGTHSLTESGASCLPWNSMILIGKVYTAQNPSAQALGLGKHNYCRNPDGDAKPWCHVLKNRRLTWEYCDVPSCSTCGLRQYSQPQFRIKGGLFADIASHPWQAAIFAKHRRSPGERFLCGGILISSCWILSAAHCFQERFPPHHLTVILGRTYRVVPGEEEQKFEVEKYIVHKEFDDDTYDNDIALLQLKSDSSRCAQESSVVRTVCLPPADLQLPDWTECELSGYGKHEALSPFYSERLKEAHVRLYPSSRCTSQHLLNRTVTDNMLCAGDTRSGGPQANLHDACQGDSGGPLVCLNDGRMTLVGIISWGLGCGQKDVPGVYTKVTNYLDWIRDNMRP
notes: cleaves fibrin as it forms
time after which the clot proves to be unstable (whole blood fibrinolysis): 20 to 30 min

— patent US9599627B2, “NMR methods for monitoring blood clot formation” (T2 Biosystems, Inc., priority 2011, dated 2017)
